Measurements reported in patent publication US20100017897A1 (CHILDREN S HOSPITAL OF PHILADELPHIA, published 2010).

T1: cytosolic domain of human PRRG4 (human, UniProt Q9BZD6 139-226)
T1 construct: Expressed in insect cells; also called cytosolic hPPRG4; cystosolic domain of hPPRG4; not shown: purified by HA and histidine columns, so HA and His tags are implied
T1 sequence: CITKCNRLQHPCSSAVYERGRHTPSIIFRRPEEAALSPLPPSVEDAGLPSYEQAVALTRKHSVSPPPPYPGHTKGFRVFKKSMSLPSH

B1: Abelson-related protein; Arg tyrosine kinase (other, UniProt P42684 107-167, looked up)
chain: SDPNLFVALYDFVASGDNTLSITKGEKLRVLGYNQNGEWSEVRSKNGQGWVPSNYITPVNS
notes: domain: SH3 domain; Array spot; also called Abl2
B2: Bruton Tyrosine Kinase (other, UniProt Q06187 214-274, looked up)
chain: SELKKVVALYDYMPMNANDLQLRKGDEYFILEESNLPWWRARDKNGQEGYIPSNYVTEAED
notes: domain: SH3 domain; Array spot; also called BTK
B3: Lyn, Src family of non-receptor protein Tyrosine kinase (other, UniProt P07948 63-123, looked up)
chain: EQGDIVVALYPYDGIHPDDLSFKKGEKMKVLEEHGEWWKAKSLLTKKEGFIPSNYVAKLNT
notes: domain: SH3 domain; Array spot
B4: Peroxisomal membrane protein PEX13 (other, UniProt Q92968 272-336, looked up)
chain: DDHVVARAEYDFAAVSEEEISFRAGDMLNLALKEQQPKVRGWLLASLDGQTTGLIPANYVKILGK
notes: domain: SH3 domain; Array spot; also called PEXD
B5: PAK-interacting exchange factor beta (other, UniProt Q14155 184-243, looked up)
chain: NNQLVVRAKFNFQQTNEDELSFSKGDVIHVTRVEEGGWWEGTLNGRTGWFPSNYVREVKA
notes: domain: SH3 domain; Array spot; also called Y124
B6: Tyrosine-protein kinase Tec (other, UniProt P42680 179-239, looked up)
chain: NSEEIVVAMYDFQAAEGHDLRLERGQEYLILEKNDVHWWRARDKYGNEGYIPSNYVTGKKS
notes: as for B3
B7: Grb2-related adaptor protein, SH3 Domain #2 (other, UniProt Q13588 158-217, looked up)
chain: PGACFAQAQFDFSAQDPSQLSFRRGDIIEVLERPDPHWWRGRSCGRVGFFPRSYVQPVHL
notes: domain: SH3 Domain #2; Array spot; also called Grap-D2
B8: Osteoclast stimulating factor 1 (other, UniProt Q92882 12-71, looked up)
chain: GQVKVFRALYTFEPRTPDELYFEEGDIIYITDMSDTNWWKGTSKGRTGLIPSNYVAEQAE
notes: domain: SH3 domain; Array spot; also called OSF
B9: Nebulette (other, UniProt O76041 954-1014, looked up)
chain: PNLRTYRAMYDYSAQDEDEVSFRDGDYIVNVQPIDDGWMYGTVQRTGRTGMLPANYIEFVN
notes: domain: SH3 domain; Array spot; also called NEBL
B10: transcriptional co-activator with PDZ-binding motif (TAZ) (other, human, UniProt Q9GZV5 124-157, looked up)
chain: LPLPPGWEMTFTATGQRYFLNHIEKITTWQDPRK
notes: domain: WW domain; Array spot

Each binder was assayed against T1, cytosolic domain of human PRRG4 (assay: SH3 domain array probed with purified cytosolic hPRRG4; listed as a hit).
Description: (§1) The cystosolic domain of hPPRG4 was expressed in insect cells and proteins were purified by HA and histidine columns. Interactions of cytosolic hPPRG4 with different SH3 and WW domains were tested by incubating purified hPRRG4 proteins with arrays containing SH3 and WW domains of several proteins. After incubation, PRRG4 bound to several proteins, most of which are non-receptor tyrosine kinases or scaffolding proteins. These newly identified binding partners provide valuable therapeutic targets for the isolation and characterization of therapeutic agents that impact PRRG4 mediated oncogenesis.

binding result	Binder
binds	B1
binds	B2
binds	B3
binds	B4
binds	B5
binds	B6
binds	B7
binds	B8
binds	B9

Each binder was assayed against T1, cytosolic domain of human PRRG4 (assay: WW domain array probed with purified cytosolic hPRRG4; listed as a hit).
Description: PRRG4 has one WW-binding domain in its cytosolic domain. WW domains are involved in several cellular processes including cell cycle control and cell proliferation. In order to analyze the possible interactions of PRRG4 with different WW motif containing proteins, the cytosolic domain of human PRRG4 was purified by our group and used in TranSignal WW Domain Arrays. This array contains WW domains from 67 different human proteins and each WW domain is spotted in duplicate. […] Among these proteins Yes-Associated Protein1 (YAP 1) and Nedd4 are particularly important as they are known to play essential roles in several cellular activities including cell proliferation. FIGS. 9 and 10 are tables that show the proteins that are used on the array.
as §1

binding result	Binder
binds	B10
